In article PMC10229431, “Structures of the sulfite detoxifying F420-dependent enzyme from Methanococcales” (Nature Chemical Biology, 2023):
Read-outs that look alike come from different tables or passages of the source.

Legend:
MjFsr = molecular target: T1, MjFsr (Methanocaldococcus jannaschii, UniProt Q58280); test: X-ray crystal structure, […] Å; format: binding; conditions: F420H2-oxidase domain
T1 construct: gene fsr; full length, native purification from M. jannaschii grown on sulfite; homotetramer, residues to 620
T1 sequence (Q58280 1-620): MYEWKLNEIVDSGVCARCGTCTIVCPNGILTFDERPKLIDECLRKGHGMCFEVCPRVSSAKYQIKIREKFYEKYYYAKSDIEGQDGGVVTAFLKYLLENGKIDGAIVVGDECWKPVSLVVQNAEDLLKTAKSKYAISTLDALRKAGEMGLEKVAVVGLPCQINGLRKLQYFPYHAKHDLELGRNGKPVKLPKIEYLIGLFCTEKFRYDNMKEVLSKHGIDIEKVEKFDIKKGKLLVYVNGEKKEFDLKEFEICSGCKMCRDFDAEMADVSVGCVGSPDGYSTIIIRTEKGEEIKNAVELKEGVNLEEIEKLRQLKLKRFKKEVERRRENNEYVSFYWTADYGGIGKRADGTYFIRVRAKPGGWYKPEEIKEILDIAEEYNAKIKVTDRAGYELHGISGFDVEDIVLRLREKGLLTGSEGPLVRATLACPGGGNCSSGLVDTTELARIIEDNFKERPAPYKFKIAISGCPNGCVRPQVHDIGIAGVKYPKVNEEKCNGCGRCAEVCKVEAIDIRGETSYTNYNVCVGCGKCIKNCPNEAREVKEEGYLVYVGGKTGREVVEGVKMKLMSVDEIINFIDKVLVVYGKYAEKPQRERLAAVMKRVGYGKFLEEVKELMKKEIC

MtFsr = test system: T2, MtFsr; test: F420H2 oxidation followed at […] nm; format: biochemical, Methanothermococcus thermolithotrophicus; conditions: anaerobic, read-out: Apparent Km
T2 construct: gene fsr; full length, native purification from M. thermolithotrophicus grown on sulfite (assays) or sulfate (crystals); FAD, siroheme, six [4Fe-4S] clusters per subunit

[1] = molecular target: coenzyme F420-dependent sulfite reductase (Group I Fsr) from Methanothermococcus thermolithotrophicus (Methanothermococcus thermolithotrophicus (endogenous in strain DSM 2095)); test: native gel or EMSA; anaerobic high-resolution clear-native PAGE (8-15% gradient) of cell extracts of cultures grown on 2 mM Na2S or 2 mM Na2SO3
[2] = molecular target: coenzyme F420-dependent sulfite reductase (Group I Fsr) from Methanothermococcus thermolithotrophicus (Methanothermococcus thermolithotrophicus (endogenous in strain DSM 2095)); test: crystal structure; MtFsr at 11 mg/ml cocrystallized with FAD and F420H2; 200 mM lithium sulfate, 100 mM Bis-Tris pH 5.5, 25% w/v PEG 3350; anaerobic, 20 °C; four homotetramers in the asymmetric unit
[3] = molecular target: coenzyme F420-dependent sulfite reductase (Group I Fsr) from Methanothermococcus thermolithotrophicus (Methanothermococcus thermolithotrophicus (endogenous in strain DSM 2095)); test: SEC; purified MtFsr on Superdex 200 Increase 10/300 GL, 0.4 ml/min, 25 mM Tris-HCl pH 7.6, 10% v/v glycerol, 2 mM DTT, anaerobic; standards conalbumin, aldolase, ferritin; apparent molecular weight
[4] = molecular target: the molecule itself; test: crystal structure; MjFsr at 6.1 mg/ml; 45% v/v 2-methyl-2,4-pentanediol, 100 mM Bis-Tris pH 5.5, 200 mM calcium chloride; anaerobic, 20 °C; two half homotetramers in the asymmetric unit

Molecule: Cc1cc2nc3c(=O)[nH]c(=O)nc-3n(C[C@H](O)[C@H](O)[C@H](O)COP(=O)(O)OP(=O)(O)OC[C@H]3O[C@@H](n4cnc5c(N)ncnc54)[C@H](O)[C@@H]3O)c2cc1C [FAD]
- X-ray crystal structure, 2.30 Å (MjFsr): The active site of the F420H2-oxidase domain of Fsr contains a flavin adenine dinucleotide (FAD

Molecule: O=NO [NO2^−]
- Km (MtFsr; 0-500 µM NaNO2, 50 µM F420H2, 200 mM KH2PO4 pH 7.0, 50 °C): 2.5 ± 0.2 µM

Molecule: O=S(O)O [SO3^2−]
- Km (MtFsr; 0-500 µM Na2SO3, 50 µM F420H2, 200 mM KH2PO4 pH 7.0, 50 °C): 15.6 ± 2 µM

Molecule: coenzyme F420-dependent sulfite reductase (Group I Fsr) from Methanothermococcus thermolithotrophicus
- stoichiometry N [1]: 4
- stoichiometry N [2]: 4
- stoichiometry N [3]: 4

B1: coenzyme F420-dependent sulfite reductase (Group I Fsr) from Methanocaldococcus jannaschii (enzyme, UniProt Q58280 1-620, looked up)
chain: MYEWKLNEIVDSGVCARCGTCTIVCPNGILTFDERPKLIDECLRKGHGMCFEVCPRVSSAKYQIKIREKFYEKYYYAKSDIEGQDGGVVTAFLKYLLENGKIDGAIVVGDECWKPVSLVVQNAEDLLKTAKSKYAISTLDALRKAGEMGLEKVAVVGLPCQINGLRKLQYFPYHAKHDLELGRNGKPVKLPKIEYLIGLFCTEKFRYDNMKEVLSKHGIDIEKVEKFDIKKGKLLVYVNGEKKEFDLKEFEICSGCKMCRDFDAEMADVSVGCVGSPDGYSTIIIRTEKGEEIKNAVELKEGVNLEEIEKLRQLKLKRFKKEVERRRENNEYVSFYWTADYGGIGKRADGTYFIRVRAKPGGWYKPEEIKEILDIAEEYNAKIKVTDRAGYELHGISGFDVEDIVLRLREKGLLTGSEGPLVRATLACPGGGNCSSGLVDTTELARIIEDNFKERPAPYKFKIAISGCPNGCVRPQVHDIGIAGVKYPKVNEEKCNGCGRCAEVCKVEAIDIRGETSYTNYNVCVGCGKCIKNCPNEAREVKEEGYLVYVGGKTGREVVEGVKMKLMSVDEIINFIDKVLVVYGKYAEKPQRERLAAVMKRVGYGKFLEEVKELMKKEIC
notes: Group I coenzyme F420-dependent sulfite reductase (Fsr) of Methanocaldococcus jannaschii DSM 2661; Native enzyme, no tag; Each chain carries FAD, six [4Fe-4S] clusters and a siroheme; also called MjFsr; source: purified natively from M. jannaschii DSM 2661 cells under anaerobic atmosphere (Q Sepharose, Source15Phe, Superdex 200)
- stoichiometry N [4]: 4
